The target of assay [1] is T1, human CTLA-4 on transfected CHO-K1 cells (human, UniProt P16410 36-223).
T1 construct: whole, on cells; also called human CTLA4-transfected CHO cells; CTLA-4 expressing CHO cells
T1 sequence (looked up): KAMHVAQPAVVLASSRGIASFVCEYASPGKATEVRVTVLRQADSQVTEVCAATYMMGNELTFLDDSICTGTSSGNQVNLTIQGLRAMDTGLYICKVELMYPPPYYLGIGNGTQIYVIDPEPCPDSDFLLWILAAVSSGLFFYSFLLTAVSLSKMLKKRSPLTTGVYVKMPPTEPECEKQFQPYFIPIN
Put plainly: competition FACS on human CTLA4-transfected CHO-K1 cells; blocked ligand: biotinylated human B7.1 at 10 nM, detected with streptavidin-phycoerythrin.

Assay [2] has as its target T2, human CTLA-4-Fc (Chimerigen) (human, UniProt P16410 36-161, limits assumed).
T2 construct: Bought fusion protein; also called hCTLA4-Fc; not shown: It was captured by an anti-human IgG-Fc antibody
T2 sequence (looked up): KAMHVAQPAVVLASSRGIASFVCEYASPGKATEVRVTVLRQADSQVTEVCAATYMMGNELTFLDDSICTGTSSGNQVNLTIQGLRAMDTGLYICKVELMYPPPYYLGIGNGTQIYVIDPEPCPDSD
Put plainly: SPR, Biacore T100, 25 C; CTLA4-Fc captured on anti-human IgG-Fc, mutein as analyte; 1:1 Langmuir fit. The procedure:
(§1) Real time affinity analysis was performed at 25° C. using a Biacore T100 system (GE Healthcare). Anti-human IgG-Fc antibody (Jackson ImmounoResearch Laboratories) was immobilized on a CM5 sensor chip using standard amine coupling chemistry, resulting in a ligand density of 8000 resonance units (RU). […] Subsequently, the Lcn2 muteins (SEQ ID: No 12 to SEQ ID NO: 17) were applied in an appropriate dilution series in HBS-EP at a flow rate of 30 μl/min. Regeneration of the derivatized chip surface was achieved by a combination of first basic (2.5 mM NaOH) and then acidic (10 mM glycine, pH 1.5) buffer, each for 8 and 16 s, respectively. […] To correct for buffer effects and baseline drift, double referencing was used throughout. Kinetic data evaluation was performed using the Biacore T100 Evaluation Software (v. 2.0.1) using the Langmuir 1:1 binding model and global fitting.
A general note: Surface plasmon resonance follows binding to a sensor surface in real time, without labels.

For assay [3], the target named is T3, murine CTLA4-Fc (R&D Systems) (mouse, UniProt P09793 36-162, limits assumed).
T3 construct: Bought fusion protein; also called mouse CTLA4; not shown: It was captured by an anti-human IgG-Fc antibody
The assay is described as above. The procedure: as §1

The target in assay [4] is T1, human CTLA-4 on transfected CHO-K1 cells. Put plainly: competition FACS on human CTLA4-transfected CHO-K1 cells; competitor biotinylated human B7.1 at 10 nM. The protocol:
Different concentrations of the Lcn2 muteins or, as a positive control, of the antibody BNI3 (BD Bioscience) were mixed with recombinant biotinylated human B7.1 (Ancell) at 10 nM final concentration and added to 100 000 of the CTLA-4 transfected CHO-K1 cells which were generated according to the description in example 16 of PCT/EP 2005/012640. Samples were incubated at 4° C. for 2 h, washed twice in PBS containing 2% w/v BSA, and detection of bound B7.1 was accomplished by incubation with streptavidin-phycoerythrin for 30 min at 4° C. Mean fluorescence intensities were determined by flow cytometry and fitted to a sigmoidal dose response model using Prism (GraphPad) as depicted in FIG. 4 to determine EC50 values for Lcn2 muteins from sequences of SEQ ID NO: 12 to SEQ ID NO: 17 which are summarized in Table 3.

Assay [5] has as its target T2, human CTLA-4-Fc (Chimerigen). Put plainly: screening ELISA of crude lysates: mutein captured by T7 mAb, limited soluble human CTLA4-Fc; in some cases competition ELISA with mAb BNI3. The procedure:
Therein, NGAL variants equipped with a T7 detection tag (Novagen) as well as a Strep-tag II affinity tag (IBA) were soluble expressed in a 96 well microtiter plate using the E. coli strain TG1/F with phNGAL37 SEQ ID NO: 10. This vector corresponds to phNGAL15 SEQ ID NO: 11 as described in the following example 4 with an N-terminal T7 tag consisting of 11 amino acids ([…]). Lipocalin mutein expression was induced overnight at 22° C. at 700 rpm with anhydrotetracycline (0.2 μg/ml) at an OD₅₅₀ of 0.6. Afterwards, cells were lysed (100 mM Na-borate, pH 8.0, 80 mM NaCl, 1 mM EDTA, 0.025% w/v lysozyme) for 1 h under agitation. To minimize non-specific binding in the subsequent ELISA screen, the crude cell lysates were supplemented with 2% w/v BSA and 0.1% v/v Tween 20 and tested in ELISA for binding to human CTLA-4-Fc (Chimerigen).
In a reverse ELISA approach soluble expressed muteins from the crude cell lysate were captured via immobilized T7 mAb (5 μg/ml, Novagen) on wells of black Fluotrac 600 ELISA plates (Greiner; 384 well). Neutravidin, 5 μg/ml, and 3% milk were used as negative control. […] Subsequently plates were washed five times and bound target was detected via an goat anti-human Fc monoclonal antibody-HRP conjugate (Jackson ImmunoResearch), diluted 1:5.000 in PBST/0.1. Therefore, QuantaBlu™ (Pierce; 1:2 diluted in PBS/T 0.1%) was used as fluorogenic HRP substrate. After 45 min of signal development at room temperature fluorescence was excited at a wavelength of 320 nm (±12.5 nm) and measured at 430 nm (±17.5 nm) in a GENiosPlus plate reader (Tecan).
In some cases a competition ELISA was carried out where CTLA4-Fc (2.5 μg/ml) was captured in ELISA plates via an immobilized mouse anti-human IgG Fc Gamma fragment-specific antibody (Jackson ImmunoResearch (5 μg/ml) and incubated for 1 h with a pre-mixture of the mutein extracts and different concentrations of a competitive CTLA4-specific mAb BNI3 (BD Bioscience) at concentrations of 30, 100, and 200 nM, respectively.
(In general: An ELISA detects its analyte on a solid surface through an enzyme-linked reagent.)

The text below walks through data of patent publication US20140051645A1 (Pieris, published 2014).

Numbering of substitutions follows the chain as printed.

In assay [1], BNI3 (antibody) gave an IC50 (read off the curve) of 3 nM.

B1: hNGALM4 (designed binder)
chain: QDSTSDLIPAPPLSKVPLQQNFQDNQFHGKWYVVGLAGNRILRDDQHPMPMYATIYELKGDKSYNVTSVISSHKKCLYPIATFVPGSQPGEFTLGNIKSYGDKWSYLVRVVSTDYNQYAVVFFKHADSNYESFSITIYGRTKELASELKENFIRFSKSLGLPENHIVFPVPIDQCIDG
Regarding B1, in assay [2], the equilibrium dissociation constant (Kd) (usually a measure of binding affinity in units of concentration) came to 0.346 nM, the off-rate (koff) (usually the rate constant with which the complex falls apart) is 0.000186 s⁻¹ and the kon (usually the rate constant with which the complex forms) worked out at 539000 M⁻¹ s⁻¹. In assay [3], the Kd came out at 0.584 nM, the koff is 0.000129 s⁻¹ and the association rate constant (kon) came to 221000 M⁻¹ s⁻¹. In addition, in assay [4], the EC50 (in general, the midpoint of the concentration-response curve) was found to be 9.5 nM.

B2: hNGALM3 (designed binder)
chain: QDSTSDLIPAPPLSKVPLQQNFQDNQFHGKWYVVGLAGNRILRQDQHPMLMYATIYELKGDKSYNVTSVISSHKKCLYPIATFVPGSQPGEFTLGNIKSYGDKVSYLVRVVSTDYNQYAVVFFKHADTNYESFSITIYGRTKELASELKENFIRFSKSLGLPENHIVFPVPIDQCIDGSAWSHPQFEK
With B2, in assay [2], the dissociation constant Kd was 0.46 nM, the koff was 0.000194 s⁻¹ and the on-rate (kon) amounted to 422000 M⁻¹ s⁻¹. In addition, in assay [3], the Kd was 0.672 nM, the koff came out at 0.000134 s⁻¹ and the kon is 199000 M⁻¹ s⁻¹. In assay [4], this molecule returned an EC50 of 7.6 nM.

B3: hNGALM7 (designed binder)
chain: B2 chain with Q44L, L50P, K98R, V104T
Turning to B3, in assay [2], the equilibrium dissociation constant (Kd) came to 0.659 nM, the koff came out at 0.000517 s⁻¹ and the kon was determined as 784000 M⁻¹ s⁻¹. In addition, in assay [3], the Kd turned out to be 0.413 nM, the koff came to 0.000108 s⁻¹ and the kon was determined as 261000 M⁻¹ s⁻¹. In assay [4], this molecule showed an EC50 of 11 nM.

B4: hNGALM2 (designed binder)
chain: B2 chain with I41L, Q44D, L50D, V104W
For the molecule B4, in assay [2], the Kd came out at 0.686 nM, the dissociation rate constant (koff) amounted to 0.000388 s⁻¹ and the kon stood at 565000 M⁻¹ s⁻¹. Besides, in assay [3], the dissociation constant (Kd) is 3.05 nM, the off-rate (koff) amounted to 0.000907 s⁻¹ and the association rate constant (kon) amounted to 298000 M⁻¹ s⁻¹. In assay [4], the 50% effective concentration (EC50) came to 6 nM.

B5: hNGALM6 (designed binder)
chain: B2 chain with Q44S, L50P, P79S, V104E, H125Y, D127S, T128D, Y130D
B5: in assay [2], the Kd was 0.588 nM, the off-rate constant (koff) stood at 0.000197 s⁻¹ and the kon was found to be 335000 M⁻¹ s⁻¹. Further, in assay [3], the Kd is 66.1 nM, the koff is 4.21 s⁻¹ and the kon is 6.36e+07 M⁻¹ s⁻¹. In assay [4], this molecule returned an EC50 of 10.3 nM.

B6: hNGALM5 (designed binder)
chain: B2 chain with Q44S, L50R, P79T, V104W
With B6, in assay [2], the Kd was 0.74 nM, the koff came out at 0.000281 s⁻¹ and the association rate constant (kon) was determined as 380000 M⁻¹ s⁻¹. Further, in assay [3], the equilibrium dissociation constant (Kd) turned out to be 0.32 nM, the off-rate constant (koff) was 0.000261 s⁻¹ and the on-rate constant (kon) was found to be 813000 M⁻¹ s⁻¹. Also, in assay [4], the concentration for a half-maximal effect (EC50) stood at 9 nM.

B7: SEQ ID NO 14 (designed binder)
chain: MASMTGGQQMGQDSTSDLIPAPPLSKVPLQQNFQDNQFHGKWYVVGLAGNRILRDDQHPMPMYATIYELKGDKSYNVTSVISSHKKCLYPIATFVPGSQPGEFTLGNIKSYGDKWSYLVRVVSTDYNQYAVVFFKHADSNYESFSITIYGRTKELASELKENFIRFSKSLGLPENHIVFPVPIDQCIDG
notes: Screening construct in crude E. coli lysate, with T7 tag, mutein and Strep-tag II
As to B7, the binding result in assay [5] is on record as “binds”.

B8: SEQ ID NO 15 (designed binder)
chain: B7 chain with D55S, P61R, P90T, S139T
notes: as for B7
B8: the binding result in assay [5] was “binds”.

B9: SEQ ID NO 13 (designed binder)
chain: B7 chain with D55Q, P61L, W115V, S139T
notes: as for B7
In the case of B9, in assay [5], the binding result is “binds”.

B10: SEQ ID NO 17 (designed binder)
chain: B7 chain with D55L, K109R, W115T, S139T
notes: as for B7
In the case of B10, in assay [5], the binding result is given as “binds”.

B11: SEQ ID NO 16 (designed binder)
chain: B7 chain with D55S, P90S, W115E, H136Y, D138S, S139D, Y141D
notes: as for B7
With B11, in assay [5], the binding result is reported as “binds”.
